In the Human Domainome abundance scans (Beltran et al. 2025):

B1: Friend leukemia integration 1 transcription factor, residues 116 to 197; numbered along this chain, Q01543 (parent)
chain: NMTTNERRVIVPADPTLWTQEHVRQWLEWAIKEYSLMEIDTSFFQNMDGKELCKMNKEDFLRATTLYNTEVLLSHLSYLRES

Variants of: B1
Experiment: abundance fitness (aPCA) (normalised: wild type 0, dead -1); higher = more abundant; growth selection in yeast, the domain comes from the species named
Conditions: Homo sapiens

Abundance fitness: each site, then its substitutions
L72: W -1.1; T -0.814; V -0.6; A -0.463; K -1; M -0.099; C -0.372; Q -0.949; R -1.12
L79: F -0.657
L76: S -0.553; M -0.218; F -0.555; H -0.841; I -0.391; E -0.794; Q -0.879; R -0.723; V -0.432; G -0.28; T -0.916; P -0.7; N -0.799
K57: R -0.052; Y -0.145; M 0.008; Q 0.043; N -0.071; W -0.124; T -0.086; V -0.013; S -0.319
L73: T -0.044; C -0.057; V -0.085; F -0.1; Y -0.281; K -0.199; W 0.039; H -0.173; E -0.343; G -0.27; N -0.631; I -0.21; A -0.133; M -0.061; R -0.144; P -0.854
E58: V -0.17; L -0.117; R -0.032; T -0.053; M -0.19; F -0.228; W -0.153; N 0.048; C -0.11; G 0.028; K -0.162; A 0.119; Y 0.015; P 0.01
L66: F -0.574; C -0.039; Q -0.066; E 0.016; G -0.108; P -0.015; S 0.013; W 0.009; V 0.045; H 0.008; K -0.038; A -0.021; Y -0.036; I 0.085; T -0.089
H75: Y -0.201
T65: A -0.424; D -0.162; R -0.372; I -0.908; F -1.09
